Drawing on PMC8050391, “Structure of 3-mercaptopropionic acid dioxygenase with a substrate analog reveals bidentate substrate binding at the iron center” (The Journal of Biological Chemistry, 2021), this text covers stoichiometry N and Ki for 2 molecules.

The target in experiment [1] is Azotobacter vinelandii 3-mercaptopropionic acid dioxygenase (Azotobacter vinelandii). Description: crystal structure; crystal form A, space group P3(1), 12 monomers in the asymmetric unit; 100 mM MES pH 6, 30% poly(acrylic acid sodium salt) 5100, 10% ethanol, 50 mM MgCl2, 22 °C; complex with 3HPA and chloride.
Experiment [2] shares this target. Description: crystal structure; crystal form B, space group P6(1)22, four monomers in the asymmetric unit; HEPES pH 7, pentaerythritol propoxylate, sodium thiocyanate, 22 °C; thiocyanate bound at the iron.
For experiment [3], the target named is T1, 3-mercaptopropionic acid dioxygenase (Av3MDO) (Azotobacter vinelandii, UniProt C1DN94).
T1 construct: gene Avin_30970; His-tag removed by thrombin; N- and C-termini not modelled
The experiment in a line: X-ray crystal structure ([…] Å); competitive inhibition by O2 electrode steady-state kinetics. The experiment is classed as biochemical.

T1 sequence (C1DN94 entry or part of it): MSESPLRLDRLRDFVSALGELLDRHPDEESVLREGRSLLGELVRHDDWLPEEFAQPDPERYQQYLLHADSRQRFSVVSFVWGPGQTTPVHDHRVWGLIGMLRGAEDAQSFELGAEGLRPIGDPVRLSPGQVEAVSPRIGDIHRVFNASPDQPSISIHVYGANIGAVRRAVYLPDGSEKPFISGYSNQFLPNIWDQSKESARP

By stoichiometry N is commonly meant a count of units in the complex or per binding partner. For “Azotobacter vinelandii 3-mercaptopropionic acid dioxygenase (enzyme)”, the stoichiometry N in experiment [1] and in experiment [2] was 2 in each case.

A word on the Ki: it is the dissociation constant of the complex between target and ligand, obtained from inhibition or displacement. A higher Ki goes with weaker binding. Regarding `O=C(O)CCO` [3HPA, 3-hydroxypropionic acid], in experiment [3], the Ki came to 280 ± 26 µM.
